What was measured:
[1] = molecular target: T1, cynomolgus IgE (recombinant chimaeric D12 variable region / cynomolgus IgE constant region) (cynomolgus monkey (constant region)); assay: HTRF receptor-ligand competition, scFv titrated; Eu-cryptate cynomolgus IgE binding to human FcεRI-Fc; geomean
T1 construct: also called cyno IgE; cynomolgus IgE (in house HEK-EBNA derived)
Procedure: (§1) Purified scFv were tested in a receptor-ligand binding HTRF® (Homogeneous Time-Resolved Fluorescence) assay format for inhibition of either human IgE (U266-derived [Ikeyama et. al. 1986. Molecular Immunology 23 (2); p159-167]) or cyno IgE (recombinant, see materials and methods) labelled with europium cryptate (CIS bio International 62EUSPEA), binding to human FcεR1-Fc (in house NS0 cell produced). Example scFv potency data is included in Table 5a
as §1, with “produced).” for “produced). Example scFv potency data is included in Table 5a”

[2] = molecular target: human IgEλ (U266 derived) (human, UniProt P01854 1-546); assay: HTRF receptor-ligand competition, scFv titrated; Eu-cryptate human IgE (U266) binding to human FcεRI-Fc; geomean
human IgEλ (U266 derived), sequence (P01854 whole entry): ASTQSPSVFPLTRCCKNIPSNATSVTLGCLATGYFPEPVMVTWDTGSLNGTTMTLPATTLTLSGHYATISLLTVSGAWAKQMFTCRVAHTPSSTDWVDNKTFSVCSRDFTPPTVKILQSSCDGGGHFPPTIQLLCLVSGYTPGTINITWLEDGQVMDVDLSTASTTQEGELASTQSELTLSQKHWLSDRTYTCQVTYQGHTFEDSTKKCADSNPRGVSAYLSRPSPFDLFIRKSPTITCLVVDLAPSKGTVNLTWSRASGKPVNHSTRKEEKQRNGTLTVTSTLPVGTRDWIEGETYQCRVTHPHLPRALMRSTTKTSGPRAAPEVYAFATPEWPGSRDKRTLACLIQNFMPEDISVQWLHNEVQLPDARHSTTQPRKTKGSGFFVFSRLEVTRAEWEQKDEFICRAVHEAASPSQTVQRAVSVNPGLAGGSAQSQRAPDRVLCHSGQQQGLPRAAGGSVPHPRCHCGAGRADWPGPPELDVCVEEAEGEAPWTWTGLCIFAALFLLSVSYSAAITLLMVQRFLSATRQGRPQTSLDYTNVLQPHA
Procedure: as §1
as §1, with “produced).” for “produced). Example scFv potency data is included in Table 5a”

T1 sequence (heavy, as listed by the source limits assumed, chain 1 of 2): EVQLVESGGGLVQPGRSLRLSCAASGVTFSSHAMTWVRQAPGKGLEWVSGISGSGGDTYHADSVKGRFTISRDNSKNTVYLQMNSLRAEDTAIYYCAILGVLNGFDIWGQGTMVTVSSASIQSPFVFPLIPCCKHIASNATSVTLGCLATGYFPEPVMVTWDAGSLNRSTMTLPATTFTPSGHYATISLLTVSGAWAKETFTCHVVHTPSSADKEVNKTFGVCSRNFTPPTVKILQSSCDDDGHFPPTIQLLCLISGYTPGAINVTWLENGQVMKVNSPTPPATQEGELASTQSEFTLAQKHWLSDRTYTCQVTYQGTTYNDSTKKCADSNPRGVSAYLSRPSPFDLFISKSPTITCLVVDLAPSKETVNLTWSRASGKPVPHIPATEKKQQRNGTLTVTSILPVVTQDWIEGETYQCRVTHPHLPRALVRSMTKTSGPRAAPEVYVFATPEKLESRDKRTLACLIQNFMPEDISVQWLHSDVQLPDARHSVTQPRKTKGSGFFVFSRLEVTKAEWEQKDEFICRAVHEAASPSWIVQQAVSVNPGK
T1 sequence (light, as listed by the source limits assumed, chain 2 of 2): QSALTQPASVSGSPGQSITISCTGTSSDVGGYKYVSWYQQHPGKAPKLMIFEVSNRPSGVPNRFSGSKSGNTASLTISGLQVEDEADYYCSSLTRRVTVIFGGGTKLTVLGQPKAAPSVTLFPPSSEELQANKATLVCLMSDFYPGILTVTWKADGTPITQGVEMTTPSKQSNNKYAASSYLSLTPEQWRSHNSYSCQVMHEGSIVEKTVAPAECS

Binder | IC50 [1] [nM] | IC50 [2] [nM]
Antibody 8 (scFv) (scFv, V domains shown, purified scFv) VH: EVQLLESGGGLVQPGGSLRLSCAAPGFTFSSYAMSWVRQAPGKGLEWVSAISGGSGGRTYYADSVKGRFTISRDNSKNTLYLQMNSLRAEDTAVYYCARHIAVAGTRGFDYWGRGTLVTVSS VL: SYVLTQPPSVSVSPGQTASITCSGDKLGDTYASWYRQRSGQSPVLVIYQDDKRPSGIPERFSGSNSGNTATLTISGTHTMDEADYYCLAWDTRTSGAVFGGGTKLTVL | 438 | 8
Antibody 28 (scFv) (scFv, V domains shown, purified scFv) VH: EVQLLESGGGLVQPGGSLRLSCAASGFTFSSYAMSWVRQAPGKGLEWVSAISGSGGRTYYADSVKGRFTISRDNSKNTLYLQMNSLRAEDTAVYYCARLWFPAITRGFDYWGRGTLVTVSS VL: SYVLTQPPSVSVSPGQTASITCSGDKLGDTYASWYRQRSGQSPVLVIYQDDKRPSGIPERFSGSNSGNTATLTISGTHTMDEADYYCLAWDTRTSGAVFGGGTKLTVL |  | 4
Antibody 30 (scFv) (scFv, V domains shown, purified scFv) VH: EVQLLESGGGLVQPGGSLRLSCAASGFTFSSYAMSWVRQAPGKGLEWVSAISGSGGRTYYADSVKGRFTISRDNSKNTLYLQMNSLRAEDTAVYYCARLSYPAITRGFDYWGRGTLVTVSS VL: SYVLTQPPSVSVSPGQTASITCSGDKLGDTYASWYRQRSGQSPVLVIYQDDKRPSGIPERFSGSNSGNTATLTISGTHTMDEADYYCLAWDTRTSGAVFGGGTKLTVL |  | 4
Antibody 14 (scFv) (scFv, V domains shown, purified scFv) VH: EVQLLESGGGLVQPGGSLRLSCAAPGFTFSSYPMSWVRQAPGKGLEWVSAISGSGGSTYYADSVKGRFTISRDNSKNTLYLQMNSLRAEDTAVYYCARHIAVAGTRGFDYWGRGTLVTVSS VL: SFVLSQPPSVSVSPGQTASITCSGDKLGDTYASWYRQRSGQSPVLVIYQDDKRPSGIPERFSGSNSGNTATLTISGTHTMDEADYYCLAWDTRTSGAVFGGGTKLTVL |  | 7
Antibody 29 (scFv) (scFv, V domains shown, purified scFv) VH: EVQLLESGGGLVQPGGSLRLSCAASGFTFSSYAMSWVRQAPGKGLEWVSAISGSGGRTYYADSVKGRFTISRDNSKNTLYLQMNSLRAEDTAVYYCARLTFPAITRGFDYWGRGTLVTVSS VL: SYVLTQPPSVSVSPGQTASITCSGDKLGDTYASWYRQRSGQSPVLVIYQDDKRPSGIPERFSGSNSGNTATLTISGTHTMDEADYYCLAWDTRTSGAVFGGGTKLTVL |  | 6
Antibody 21 (scFv) (scFv, V domains shown, purified scFv) VH: EVQLLESGGGLVQPGGSLRLSCAASGFTFSSYAMSWVRQAPGKGLEWVSAISGSGGRTYYADSVKGRFTISRDNSKNTLYLQMNSLRAEDTAVYYCARLTFPAITRGFDYWGRGTLVTVSS VL: SYVLTQPPSVSVSPGQTASITCSGDKLGDKYASWYRQRSGQSPVLVIYQDDKRPSGIPERFSGSNSGNTATLTISGTHTMDEADYYCLAWDTRTSGAVFGGGTKLTVL |  | 4
Antibody 31 (scFv) (scFv, V domains shown, purified scFv) VH: EVQLLESGGGLVQPGGSLRLSCAASGFTFSSYAMSWVRQAPGKGLEWVSAISGSGGRTYYADSVKGRFTISRDNSKNTLYLQMNSLRAEDTAVYYCARLSYPAITRGFDYWGRGTLVTVSS VL: SYVLTQPPSVSVSPGQTASITCSGDKLGDKYASWYRQRSGQSPVLVIYQDDKRPSGIPERFSGSNSGNTATLTISGTHTMDEADYYCLAWDTRTSGAVFGGGTKLTVL |  | 9
Antibody 20 (scFv) (scFv, V domains shown, purified scFv) VH: EVQLLESGGGLVQPGGSLRLSCAASGFTFSSYAMSWVRQAPGKGLEWVSAISGSGGRTYYADSVKGRFTISRDNSKNTLYLQMNSLRAEDTAVYYCARSTYFASTRGFDYWGRGTLVTVSS VL: SYVLTQPPSVSVSPGQTASITCSGDKLGDKYASWYRQRSGQSPVLVIYQDDKRPSGIPERFSGSNSGNTATLTISGTHTMDEADYYCLAWDTRTSGAVFGGGTKLTVL |  | 5
Antibody 19 (scFv) (scFv, V domains shown, purified scFv) VH: EVQLLESGGGLVQPGGSLRLSCAASGFTFSSYAMSWVRQAPGKGLEWVSAVSGGSGGRTYYADSVKGRFTISRDNSKNTLYLQMNSLRAEDTAVYYCARHIAVAGTRGFDYWGRGTLVTVSS VL: SFVLTQPPSVSVSPGQTASITCSGDKLGDTYASWYRQRSGQSPVLVIYQDDKRPSGIPERFSGSNSGNTATLTISRTHTMDEADYYCLAWDTRTSGAVFGGGTKLTVL | 197 | 9
Antibody 13 (scFv) (scFv, V domains shown, purified scFv) VH: EVQLLESGGGLVQPGGSLRLSCAASGFTFSSYAMSWVRQAPGKGLEWVSAISGSGGRTYYADSVKGRFAVSRDNSKNTLYLQMNSLRAEDTAVYYCARHIAVAGTRGFDYWGRGTLVTVSS VL: SYVLTQPPSVSVSPGQTASITCSGDKLGDTYASWYRQRSGQSPVLVIYQDDRRPSGIPERFSGSNSGNTATLTISGTHTMDEADYYCLAWDTRTSGAVFGGGTKLTVL |  | 9
Antibody 17 (scFv) (scFv, V domains shown, purified scFv) VH: EVQLLESGGGLVQPGGSLRLSCAAPGFTFSSYAMSWVRQAPGKGLEWVSAISGGSGGRTYYADSVKGRFTISRDNSKNTLYLQMNSLRAEDTAVYYCARHIAVAGTRGFDYWGRGTLVTVSS VL: SYVLTQPPSVSVSPGQTASITCSGDKLGDTYASWYRQRSGQSPVLVIYQDDKRPSGIPERFSGSNSGDTATLTISGTHTMDEADYYCLAWDTRTSGAVFGGGTKLTVL | 264 | 7
Antibody 23 (scFv) (scFv, V domains shown, purified scFv) VH: EVQLLESGGGLVQPGGSLRLSCAASEFTFGSYAMSWVRQAPGKGLEWVSAISGGSGGRTYYADSVKGRFTISRDNSKNTLYLQMNSLRAEDTAVYYCARHIAVAGTRGFDYWGRGTLVTVSS VL: SYVLTQPPSVSVSPGQTASITCSGDKLGDTYASWYRQRSGQSPVLVIYQDDKRPSGIPERFSGSNSGNAATLTISGTHTMDEADYYCLAWDTRTSGAVFGGGTKLTVL | 331 | 7
Antibody 16 (scFv) (scFv, V domains shown, purified scFv) VH: EVQLLESGGGLVQPGGSLRLSCAAPGFTFSSYAMSWVRQAPGKGLEWVSAISGGSGGRTYYADSVKGRFTISRDNSKNTLYLQMNSLRAEDTAVYYCARHIAVAGTRGFDYWGRGTLVTVSS VL: SYVLTQPPSVSVSPGQTASITCSGDKLGDTYASWYRQRSGQSPVLVIYQDDKRPSGIPERFSGSNSGNTATLTISGTHTMDEADYYCLAWDTRTSGAVFGGGTELTVL | 280 | 10
Antibody 24 (scFv) (scFv, V domains shown, purified scFv) VH: EVQLLESGGGLVQPGGSLRLSCAAPGFTFSSYAMSWVRQAPGKGLEWVSAISGGSGGRTYYADSVKGRFTISRDNSKNTLYLQMNSLRAEDTAVYYCARHIAVAGTRGFDYWGRGTLVTVPS VL: SFVLTQPPSVSVSPGQTASITCSGDKLGDTYASWYRQRSGQSPVLVIYQDDKRPSGIPERFSGSNSGNTATLTISGTHTMDEADYYCLAWDTRTSGAVFGGGTKLTVL | 196 | 4
Antibody 11 (scFv) (scFv, V domains shown, purified scFv) VH: EVQLLESGGGLVQPGGSLRLSCAASGFTFSSYAMSWVRQAPGKGLEWVSAISGSGGRTYYADSVKGRFTISRDNSKNTLYLQMNSPRAEDTAVYYCARHIAVAGTRGFDYWGRGTLVAVSS VL: SYVLTQPPSVSVSPGQTASIACSGDKLGDTYASWYRQRSGQSPVLVIYQDDKRPSGIPERFSGSNSGNTATLTISGTHTMDEADYYCLAWDTRTSGAVFGGGTKLTVL |  | 7
Antibody 25 (scFv) (scFv, V domains shown, purified scFv) VH: EVQLLESGGGLVQPGGSLRLSCAAPGFTFSSYAMSWVRQAPGKGLEWVSAISGGSGGRTYYADSVKGRFTISRDNSKNTLYLQMNSLRAEDTAVYYCARHIAVAGTRGFDYWGRGTLVTISS VL: SFVLTQPPSVSVSPGQTASITCSGDKLGDTYASWYRQRSGQSPVLVIYQDDKRPSGIPERFSGSNSGNTATLTISGTHTMDEADYYCLAWDTRTSGAVFGGGTKLTVL | 188 | 6
Antibody 22 (scFv) (scFv, V domains shown, purified scFv) VH: EVQLLESGGGLVQPGGSLRLSCAASGFTFSSYAMSWVRQAPGKGLEWVSAISGSGGRTYYADSAKGRFTISRDNSKNTLYLQMNGLRAEDTAVYYCARHIAVAGTRGFDYWGRGTLVTVSS VL: SYVLTQPPSVSVSPGQTASITCSGDKLGDTYTSWYRQRSGQSPVLVIYQDDKRPSGVPERFSGSNSGNTATLTISGTHTMDEADYYCLAWDTRTSGAVFGGGTKLTVL |  | 7
Antibody 18 (scFv) (scFv, V domains shown, purified scFv) VH: EVQLLESGGGLVQPGGSLRLSCAASGFTFSSYAVSWVRQAPGKGLEWVSAISGGSGGRTYYADSVKGRFTISRDNSKNTLYLQMNSLRAEDTAVYYCARHIAVAGTRGFDYWGRGTLVTVSS VL: SYVLTQPPSVSVSPGQTASITCSGDKLGDTYASWYRQRSGQSPVLVIYQDDKRPSGIPERFSGSNSGDTATLTISGTRTMDEADYYCLAWDTRTSGAVFGGGTKLTVL | 129 | 6
Antibody 6 (scFv) (scFv, V domains shown, purified scFv) VH: EVQLLESGGGLVQPGGSLRLSCAASGFTFSSYAMSWVRQAPGKGLEWVSAISGSGGRTYYADSVKGRFTISKDNSKNTLYLQMNSLRAEDTAVYYCARHIAVAGTRGFDYWGRGALVTVSS VL: SYVLTQPPSVSVSPGQTASITCSGDKLGDTYASWYRQRSGQSPVLVIYQDDKRPSGIPERFSGSNSGNTATLTISGTHTMDEADYYCLAWDTRTSGAVFGGGTKLTVL |  | 8

From US20110212084A1 (AstraZeneca / MedImmune, published 2011)
